The values that follow come from patent publication US20250171562A1 (ALK ABELL, published 2025).

By EC50 is commonly meant the concentration giving half of the maximal effect.

The chains are these.
B1: CIgG4F6A1(G4S)3 (Fc fusion)
chain 1: GPPCPPCPAPEFLGGPSVFLFPPKPKDTLMISRTPEVTCVVVDVSQEDPEVQFNWYVDGVEVHNAKTKPREEQFNSTYRVVSVLTVLHQDWLNGKEYKCKVSNKGLPSSIEKTISKAKGQPREPQVYTLPPCQEEMTKNQVSLWCLVKGFYPSDIAVEWESNGQPENNYKTTPPVLDSDGSFFLYSRLTVDKSRWQEGNVFSCSVMHEALHNHYTQKSLSLSLGKGGGGSGGGGSGGGGSDVQLQESGGGLVQAGGSLRLSCAASGLTFGSYDMGWYRQAPGKQRELVGRIRNDGITYYADSVKGRFTMSRDNAKNTVYLQMNSLKPEDTAVYYCAADGTGLGHYDYWGQGTQVTVS
chain 2: GPPCPPCPAPEFLGGPSVFLFPPKPKDTLMISRTPEVTCVVVDVSQEDPEVQFNWYVDGVEVHNAKTKPREEQFNSTYRVVSVLTVLHQDWLNGKEYKCKVSNKGLPSSIEKTISKAKGQPREPQVCTLPPSQEEMTKNQVSLSCAVKGFYPSDIAVEWESNGQPENNYKTTPPVLDSDGSFFLVSRLTVDKSRWQEGNVFSCSVMHEALHNHYTQKSLSLSLGKGGGGSGGGGSGGGGSEVQLLESGGGLVQPGGSLRLSCAASGFTFGNYDMAWVRQAPGKRPEWVSSIDTGGDITHYADSVKGRFTISRDNAKNTLYLQMNSLRPEDTAVYWCATDEEYALGPNEFDYYGQGTLVTVSS
B2: CIgG4A1B1(G4S)1 (Fc fusion)
chain 1: GPPCPPCPAPEFLGGPSVFLFPPKPKDTLMISRTPEVTCVVVDVSQEDPEVQFNWYVDGVEVHNAKTKPREEQFNSTYRVVSVLTVLHQDWLNGKEYKCKVSNKGLPSSIEKTISKAKGQPREPQVCTLPPSQEEMTKNQVSLSCAVKGFYPSDIAVEWESNGQPENNYKTTPPVLDSDGSFFLVSRLTVDKSRWQEGNVFSCSVMHEALHNHYTQKSLSLSLGKGGGGSQVQLQESGGGLVQTGGSLRLSCAVHGRTFSNTGMGWFRQAPGNERQFVAIISPSGTSTYYADSVKGRFTISRDPAKNTVYLQMNSLKMDDTAVYYCAASYGSNWSTLRHQRRNEYDAWGQGTQVAVS
chain 2: GPPCPPCPAPEFLGGPSVFLFPPKPKDTLMISRTPEVTCVVVDVSQEDPEVQFNWYVDGVEVHNAKTKPREEQFNSTYRVVSVLTVLHQDWLNGKEYKCKVSNKGLPSSIEKTISKAKGQPREPQVYTLPPCQEEMTKNQVSLWCLVKGFYPSDIAVEWESNGQPENNYKTTPPVLDSDGSFFLYSRLTVDKSRWQEGNVFSCSVMHEALHNHYTQKSLSLSLGKGGGGSEVQLLESGGGLVQPGGSLRLSCAASGFTFGNYDMAWVRQAPGKRPEWVSSIDTGGDITHYADSVKGRFTISRDNAKNTLYLQMNSLRPEDTAVYWCATDEEYALGPNEFDYYGQGTLVTVSS
notes: B1 on the hole (437), A1 on the knob (106)
B3: CIgG4F6A1(G4S)2 (Fc fusion)
chain 1: GPPCPPCPAPEFLGGPSVFLFPPKPKDTLMISRTPEVTCVVVDVSQEDPEVQFNWYVDGVEVHNAKTKPREEQFNSTYRVVSVLTVLHQDWLNGKEYKCKVSNKGLPSSIEKTISKAKGQPREPQVYTLPPCQEEMTKNQVSLWCLVKGFYPSDIAVEWESNGQPENNYKTTPPVLDSDGSFFLYSRLTVDKSRWQEGNVFSCSVMHEALHNHYTQKSLSLSLGKGGGGSGGGGSDVQLQESGGGLVQAGGSLRLSCAASGLTFGSYDMGWYRQAPGKQRELVGRIRNDGITYYADSVKGRFTMSRDNAKNTVYLQMNSLKPEDTAVYYCAADGTGLGHYDYWGQGTQVTVS
chain 2: GPPCPPCPAPEFLGGPSVFLFPPKPKDTLMISRTPEVTCVVVDVSQEDPEVQFNWYVDGVEVHNAKTKPREEQFNSTYRVVSVLTVLHQDWLNGKEYKCKVSNKGLPSSIEKTISKAKGQPREPQVCTLPPSQEEMTKNQVSLSCAVKGFYPSDIAVEWESNGQPENNYKTTPPVLDSDGSFFLVSRLTVDKSRWQEGNVFSCSVMHEALHNHYTQKSLSLSLGKGGGGSGGGGSEVQLLESGGGLVQPGGSLRLSCAASGFTFGNYDMAWVRQAPGKRPEWVSSIDTGGDITHYADSVKGRFTISRDNAKNTLYLQMNSLRPEDTAVYWCATDEEYALGPNEFDYYGQGTLVTVSS

T1 sequence (P01854 other isoform, or with tags, fused parts or gaps): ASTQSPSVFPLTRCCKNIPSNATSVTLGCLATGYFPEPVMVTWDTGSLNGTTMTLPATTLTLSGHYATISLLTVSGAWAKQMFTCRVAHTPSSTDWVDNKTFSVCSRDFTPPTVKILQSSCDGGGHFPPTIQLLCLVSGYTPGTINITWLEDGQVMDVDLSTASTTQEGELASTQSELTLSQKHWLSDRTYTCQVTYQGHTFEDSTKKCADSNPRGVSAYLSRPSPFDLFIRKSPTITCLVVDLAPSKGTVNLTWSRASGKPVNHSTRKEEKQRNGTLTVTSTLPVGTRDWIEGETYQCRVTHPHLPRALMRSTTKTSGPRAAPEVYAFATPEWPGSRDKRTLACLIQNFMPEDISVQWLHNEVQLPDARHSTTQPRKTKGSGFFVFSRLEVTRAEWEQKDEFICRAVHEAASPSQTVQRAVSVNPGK

The assay addresses T1, recombinant human IgE (human, UniProt P01854-1 1-428).
T1 construct: made in-house (ALK); preloaded on immobilised FcεRIα in the displacement ELISA
Briefly: IgE-FcεRIα displacement ELISA. The method, boiled down: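 sdAbs at pM–μM were incubated 1 h on preformed complexes of 13 ng/ml recombinant human IgE with avi-tag-biotinylated human FcεRIα captured on streptavidin.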
In general terms: ELISA stands for enzyme-linked immunosorbent assay.
In the case of B1, the EC50 was determined as 3.3 nM and the Max effect was determined as 90%.

Regarding B2, the EC50 was 2.9 nM and the Max effect is greater than 95%.

Turning to B3, the EC50 came out at 8 nM and the Max effect is 75%.
